The record followed here is patent publication US9074002B2, “PTP1B inhibitors” (Cold Spring Harbor Laboratory, priority 2009, dated 2015).

Assay [1] has as its target T1, endogenous PTP1B-OX (Homo sapiens, UniProt P18031).
T1 construct: endogenous in cells; host or cells: 293T cells (transfected only with the scFv intrabody)
T1 sequence (P18031 1-435): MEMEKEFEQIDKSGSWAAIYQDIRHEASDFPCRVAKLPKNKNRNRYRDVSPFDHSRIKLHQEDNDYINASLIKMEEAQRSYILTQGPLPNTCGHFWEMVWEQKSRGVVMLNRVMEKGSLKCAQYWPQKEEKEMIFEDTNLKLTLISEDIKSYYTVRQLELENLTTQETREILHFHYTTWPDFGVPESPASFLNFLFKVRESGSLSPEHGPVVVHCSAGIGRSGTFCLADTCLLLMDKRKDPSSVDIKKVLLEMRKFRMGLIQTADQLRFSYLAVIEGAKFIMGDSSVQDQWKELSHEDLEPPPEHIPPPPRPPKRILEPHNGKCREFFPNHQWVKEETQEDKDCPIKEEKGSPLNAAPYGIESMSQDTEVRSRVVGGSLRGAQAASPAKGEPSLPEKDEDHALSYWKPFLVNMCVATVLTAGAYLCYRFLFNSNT
Description: Intrabody interaction in 293T cells treated with H2O2 (Ni-NTA pull down / anti-PTP1B immunoprecipitation). It counts as cell-based. The note with it: 1 mM H2O2 5 minutes. The method, then:
(§1) One of the positive candidate scFvs (scFv45) was cloned in pcDNA3.2/V5-GW/D-TOPO expression vector and transiently expressed in mammalian cells as stable intracellular antibody (aka intrabody) (FIG. 10). To detect PTP1B-OX and scFv45 interaction in mammalian cells, scFv45 was overexpressed in 293T cells as described herein (See Example 4) and 48 hours post transfection the cells were serum-starved for 16 hours in growth medium (DMEM, low glucose) without serum (FBS), then incubated with 1 mM H2O2 (in growth medium without serum) for 5 minutes at 37° C. or treated with 20 mM NAC (in growth medium without serum) for 1 hour at 37° C. Cells treated with H2O2 were washed twice with cold (4° C.) PBS and lysed in lysis buffer (25 mM HEPES, pH 7.4, 150 mM NaCl, 0.25% Deoxychloate, 1% TritonX-100, 25 mM NaF, 10 mM MgCl2, 1 mM EDTA, 10% Glycerol, 0.5 mM PMSF, 10 mM Benzamidine, protease inhibitor cocktail). Cells treated with NAC were lysed with lysis buffer containing 2 mM TCEP to ensure a post-lysis reducing environment. Interaction between PTP1B and intrabody45 were tested by pulling down the protein complex from 1 mg of total cell lysate with Ni-NTA agarose or by immunoprecipitating PTP with anti-PTP1B (FG6). For the pull down experiment, Ni-NTA agarose beads were incubated with the lysates (both oxidized and reduced) at 4° C. Protein complex bound to the Ni-NTA agarose beads was pulled down and washed three times; first with lysis buffer containing 20 mM imidazole followed by two more washes with wash buffer (PBS, pH 7.4, 20 mM imidazole, 0.05% BSA, 0.05% Tween-20 and protease inhibitors). Applicant used 20 mM imidazole in the wash buffer to reduce the non-specific binding of proteins with the Ni-NTA agarose beads. The complex was eluted with wash buffer containing 500 mM imidazole with gentle shaking at 4° C. and the eluate was mixed with SDS sample buffer with DTT. For the immunoprecipitation experiments, 1 mg of total cell lystates (both oxidized and reduced) was incubated with anti-PTP1B antibody (FG6) at 4° C. The interacting protein complex was immunoprecipitated after incubating the lysate-antibody mixture with protein A/G Sepharose at 4° C. After immunoprecipitation, Sepharose beads were washed three times; first with lysis buffer followed by two more washes with wash buffer (PBS, pH 7.4, 0.05% BSA, 0.05% Tween-20 and protease inhibitors). The Sepharose beads were then heated at 90° C. in 2×SDS sample buffer with DTT. Proteins from the pulled down or immunoprecipitated complex were separated by SDS-PAGE. PTP was detected with anti-PTP1B antibody (FG6) and the intrabodies were detected with anti-HA (3F10)-HRP antibody [anti-HA (3F10)-HRP, Roche] by immunoblotting.
In the initial in vitro phosphatase screening assay using reversibly oxidized (with H2O2) recombinant PTP1B, Applicant found four different PTP1B-OX specific scFvs (scFv45, scFv57, scFv64 and scFv106) from the initial pool of 12 different scFvs. […] Applicant has also shown that scFv45, expressed as an intrabody in mammalian cells, can bind to endogenous PTP1B-OX but not endogenous PTP under reducing conditions. Further assessment was carried out to identify additional PTP1B-OX-specific intrabodies. Additional scFvs have been subcloned in pcDNA3.2/V5-GW/D-TOPO mammalian expression vector (FIG. 10) from their respective phagemid constructs. After transient overexpression of these scFvs as intrabodies in 293T cells, the interaction between endogenous PTP1B and these intrabodies in both H2O2-treated cells and cells was observed under reducing condition (treated with NAC and lysed with lysis buffer containing TCEP). […] All can be used in the methods and compositions described herein. Additional scFvs, such as some or all of the 137 selected individual scFvs from the library, can be similarly tested by in vitro screening and/or by binding assay in mammalian cells.

Assay [2] has as its target T2, endogenous PTP1B under reducing conditions (Homo sapiens, UniProt P18031).
T2 construct: endogenous in cells; host or cells: 293T cells (transfected only with the scFv intrabody)
T2 sequence (P18031 1-435): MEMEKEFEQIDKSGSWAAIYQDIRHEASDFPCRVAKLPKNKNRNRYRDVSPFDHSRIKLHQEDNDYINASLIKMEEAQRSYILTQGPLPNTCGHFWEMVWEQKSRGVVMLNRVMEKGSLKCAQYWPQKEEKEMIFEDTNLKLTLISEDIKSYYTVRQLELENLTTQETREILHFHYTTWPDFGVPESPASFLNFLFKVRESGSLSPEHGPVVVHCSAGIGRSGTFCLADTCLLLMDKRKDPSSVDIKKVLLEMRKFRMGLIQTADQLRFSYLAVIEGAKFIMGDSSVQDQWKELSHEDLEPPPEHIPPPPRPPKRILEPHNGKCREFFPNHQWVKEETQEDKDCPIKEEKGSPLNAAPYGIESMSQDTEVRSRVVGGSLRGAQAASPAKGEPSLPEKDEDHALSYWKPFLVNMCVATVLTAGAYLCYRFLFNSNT
Description: Intrabody interaction in 293T cells under reducing condition (NAC, TCEP) (Ni-NTA pull down / immunoprecipitation). The note with it: 20 mM NAC, lysis buffer with 2 mM TCEP, FIGS. 11, 12. It counts as cell-based. The method, then: as §1
In the initial in vitro phosphatase screening assay using reversibly oxidized (with H2O2) recombinant PTP1B, Applicant found four different PTP1B-OX specific scFvs (scFv45, scFv57, scFv64 and scFv106) from the initial pool of 12 different scFvs. […] Applicant has also shown that scFv45, expressed as an intrabody in mammalian cells, can bind to endogenous PTP1B-OX but not endogenous PTP under reducing conditions. Further assessment was carried out to identify additional PTP1B-OX-specific intrabodies. Additional scFvs have been subcloned in pcDNA3.2/V5-GW/D-TOPO mammalian expression vector (FIG. 10) from their respective phagemid constructs. […]

The target of assay [3] is T3, PTP1B-OX (Homo sapiens, UniProt P18031).
T3 construct: made in house; host or cells: E. coli BL21 (pET19b)
T3 sequence (P18031 3-277): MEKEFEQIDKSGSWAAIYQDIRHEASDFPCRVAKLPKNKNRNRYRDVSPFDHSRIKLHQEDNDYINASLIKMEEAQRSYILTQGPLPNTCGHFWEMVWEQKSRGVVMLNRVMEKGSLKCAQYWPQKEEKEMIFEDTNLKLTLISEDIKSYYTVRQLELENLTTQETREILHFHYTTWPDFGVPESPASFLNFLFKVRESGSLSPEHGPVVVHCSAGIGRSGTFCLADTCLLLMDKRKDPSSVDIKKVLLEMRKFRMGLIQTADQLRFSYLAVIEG
Description: Inhibition of reactivation of reversibly oxidized PTP1B by reducing agent (RCML phosphatase assay). Format: biochemical. Conditions: PTP1B oxidized with H2O2, buffer exchange, TCEP added; FIG. 2. The method, then: (§2) Applicant's hypothesis was that scFvs that are able to bind to and stabilize the oxidized conformation of PTP1B in solution would inhibit reactivation by reducing agent, but have no direct inhibitory effect on phosphatase activity in assays in vitro. Activity was measured using ^32P-labeled pTyr-Reduced Carboxamidomethylated and Maleylated Lysozyme as substrate. Applicant established conditions in which wild type PTP1B could be reversibly oxidized in vitro. PTP1B was inactivated following addition of H2O2. […] Applicant validated this approach further, by testing the effects of expressing one of the scFvs (scFv45) as a single chain antibody fragment “intrabody” to PTP1B, using 293T cells as the expression system. This intrabody was expressed transiently and then tested for effects on insulin signaling, focusing initially on the tyrosine phosphorylation status of the beta-subunit of the insulin receptor and insulin receptor substrate (IRS-1).
(§3) Reduced carboxamidomethylated and maleylated lysozyme (RCML) was labeled with ^32P using recombinant GST-FER kinase to stoichiometries up to 0.8 (mol ^32P incorporated/mol of protein). This ^32P-Labeled phospho-tyrosyl RCML was used as the substrate in the in-solution phosphatase assay for screening the conformation sensor scFvs. Recombinant PTP1B was reversibly oxidized and transiently inactivated with H2O2 (5× molar excess of the protein). […] Purified bacterially expressed scFvs (100× molar excess of PTP1B) were incubated with PTP after H2O2 treatment and its removal and the effect of individual scFv on stabilizing the reversibly oxidized conformation was assessed by the phosphatase assay under reducing condition.
In a different experiment, conditions were established in which wild type PTP1B could be reversibly oxidized in vitro. […] Addition of the reducing agent alone had no substantial effect on PTP1B activity (FIGS. 1 and 2, “PTP1B”).

Assay [4] addresses T4, PTP1B (reduced, active) (Homo sapiens, UniProt P18031).
T4 construct: made in house; host or cells: E. coli BL21 (pET19b)
T4 sequence (P18031 3-277 limits assumed): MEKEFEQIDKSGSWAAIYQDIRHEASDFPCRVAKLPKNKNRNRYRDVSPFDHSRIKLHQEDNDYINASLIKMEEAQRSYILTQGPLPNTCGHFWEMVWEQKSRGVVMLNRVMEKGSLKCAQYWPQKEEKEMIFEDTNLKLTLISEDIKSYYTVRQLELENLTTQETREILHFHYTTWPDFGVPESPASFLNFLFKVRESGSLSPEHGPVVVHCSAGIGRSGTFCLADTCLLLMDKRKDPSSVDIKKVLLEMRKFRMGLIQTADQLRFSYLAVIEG
Description: Direct effect of scFvs/antibodies on PTP1B phosphatase activity (32P-pTyr-RCML substrate). The note with it: 32P-labeled pTyr-RCML substrate, FIG. 1. It counts as biochemical. As for the experimental part: as §2, §3
In order to screen the isolated scFvs for those that inhibit reactivation of PTP1B-OX by reducing agent, but have no direct inhibitory effect on phosphatase activity in assays in vitro, the effect of six scFvs (scFv20, scFv34, scFv45, scFv57, scFv64 and scFv106) on PTP1B activity was determined. PTP1B activity was measured using 32P-labeled pTyr-Reduced Carboxamidomethylated and Maleylated Lysozyme as substrate (FIGS. 1 and 2). Addition of the reducing agent TCEP alone had no substantial effect in PTP1B activity was assessed.

Entries after “also recorded” stand apart in the source; their conditions may differ.

B1: scFv136: additional scFv, SEQ ID NO: 153 and 160 (protein)
scFv: MKKTAIAIAVALAGFATVAQAALTQPSSVSANPGETVKITCSGGSYSYGWYQQKSPGSAPVTVIYSSDKRPSDIPSRFSGSKSGSTSTLTITGVQAEDEAVYYCGSRDSNYVGIFGAGTTLTVLGQSSRSSTVTLDESGGGLQTPGGALSLVCKASGFTFSSYEMQWVRQAPGKGLEFVAAISSDGSYTNYGAAVQGRATISRDNGQSTVRLQLSNLRAEDTATYYCARSPGGYTWWPGAAGGIDAWGHGTEVIVSSTSGQAGQHHHHHHGAYPYDVPDYAS
As for B1, the “binding of intrabody to endogenous PTP1B-OX” value in assay [1] (FIGS. 11, 12) is “co-pulldown of PTP1B-OX in the presence of H2O2”; in assay [1] (FIGS. 11, 12, listed as scFv 136) it was “bound weakly to PTP1B-OX”. Further, the “binding of intrabody to endogenous PTP1B under reducing conditions” value in assay [2] was “not in the presence of NAC and TCEP”.

B2: scFv64: scFv binding PTP1B-OX, SEQ ID NO: 28 and 97 (protein)
scFv: MKKTAIAIAVALAGFATVAQAALTQPSSVSANPGDPLKITCSGDSSGYGYGWYQQKSPGSAPVTVIYNNNKRPSDIPSRFSGSKSGSTGTLTITGVQAEDEAVYFCGSEDSNTDAVFGAGTTLTVLGQSSRSSTVTLDESGGGLQTPGGTLSLACKASGFTFSGYDMGWVRQAPGKGLEYVAGITSDGRYASYGSAVDGRAAIWRDNGQSTVRLQLKNLRTEDTATYYCARNDGSGWNGNNIDAWGHGTEVIVSSTSGQAGQHHHHHHGAYPYDVPDYAS
Turning to B2, the “binding of intrabody to endogenous PTP1B-OX” value in assay [1] (FIGS. 11, 12) was “bound weakly to PTP1B-OX”. For the same molecule, in assay [3], the “inhibition of reactivation of PTP1B-OX by reducing agent (restoration of PTP1B activity after reversible oxidation)” value is recorded as “substantial inhibition of the restoration of PTP1B activity”. Besides, the “direct effect on PTP1B activity” value in assay [4] is on record as “no direct inhibition of PTP activity”.

B3: scFv106: scFv binding PTP1B-OX, SEQ ID NO: 29 and 133 (protein)
scFv: MKKTAIAIAVALAGFATVAQAALTQPSSVSANPGETVKITCSGDSSDYGYGWYQQKSPGSAPVTVTYSNNQRPPNIPSRFSGSASGSTATLTITGVQVEDEAVYYCGSEDSTTDAVFGAGTTLTVLGQSSRSSAMTLDESGGGLQTPGGALSLVCKASGFTFSSYDMGWVRQAPGKGLEYVAGITNDGRYASYGSAVDGRATISRDNGQSTVRLQLNNLRAEDTGTYYCARDDGSGWTGNTIDTWGHGTEVIVSSTSGQAGQHHHHHHGAYPYDVPDYAS
Regarding B3, in assay [1] (FIGS. 11, 12), the “binding of intrabody to endogenous PTP1B-OX” value was “bound to endogenous PTP1B-OX strongly; also recorded: co-pulldown of PTP1B-OX in the presence of H2O2”. For the same molecule, the “inhibition of reactivation of PTP1B-OX by reducing agent (restoration of PTP1B activity after reversible oxidation)” value in assay [3] is listed as “substantial inhibition of the restoration of PTP1B activity”. The “direct effect on PTP1B activity” value in assay [4] is “no direct inhibition of PTP activity”. The “binding of intrabody to endogenous PTP1B under reducing conditions” value in assay [2] is “not in the presence of NAC and TCEP”.
